Test [1] deals with T1, microtubules polymerised from tubulin (α1B and β2B tubulin) (UniProt P81947 1-451; Q6B856 1-445).
T1 construct: α-tubulin, printed as α1B tubulin; β-tubulin, printed as β2B tubulin; Polymer of α/β-tubulin dimers; The same tubulin stood as taxol-stabilized (straight) MTs and as vinblastine spirals (curved); the assay tells them apart; brain tubulin is a mix of isotypes; also called MTs; taxol-stabilized MTs; source: bought: Cytoskeleton Inc. (tubulin), polymerised; taxol-stabilized MTs or vinblastine spirals
Description: co-sedimentation; MT-pelleting assay: taxol-stabilized MTs or subtilisin-treated MTs (0-12 μM tubulin dimer) with 1 or 3 μM protein, 10 min at room temperature, BRB80 (80 mM PIPES pH 6.9, 1 mM EGTA, 1 mM MgCl2) with 100 mM NaCl, 4 mM DTT, 20 μM taxol; spun through a glycerol cushion, 25 °C; SDS-PAGE, Coomassie, ImageJ. Kd: 1 μM Ska and 0-12 μM MTs; single points: 3 μM Ska (or 1 μM) and 6 μM MTs. Particulars: both partners purified.

Test [2] concerns the target microtubules polymerised from tubulin (α1B and β2B tubulin), P81947;Q6B856. Nature of the test: MT cosedimentation assay. The settings on record: 3 μM Ska and 6 μM vinblastine spirals; parent: est. 0.60; read off a plot.

Where “and” joins values, the source holds several entries; their conditions need not be identical. Identical values can stand only once.

T1 sequence (P81947 whole entry, chain 1 of 2): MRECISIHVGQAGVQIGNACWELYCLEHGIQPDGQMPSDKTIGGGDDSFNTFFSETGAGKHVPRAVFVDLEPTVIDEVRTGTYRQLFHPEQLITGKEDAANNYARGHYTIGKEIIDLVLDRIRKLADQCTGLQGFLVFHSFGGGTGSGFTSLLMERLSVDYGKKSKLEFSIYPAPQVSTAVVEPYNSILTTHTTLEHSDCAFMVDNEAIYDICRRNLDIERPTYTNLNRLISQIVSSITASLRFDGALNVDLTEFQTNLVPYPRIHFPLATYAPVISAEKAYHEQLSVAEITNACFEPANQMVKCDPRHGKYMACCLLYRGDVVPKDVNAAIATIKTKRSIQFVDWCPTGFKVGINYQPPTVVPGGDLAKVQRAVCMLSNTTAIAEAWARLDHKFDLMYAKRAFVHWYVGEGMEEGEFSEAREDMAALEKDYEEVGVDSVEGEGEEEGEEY
T1 sequence (Q6B856 whole entry, chain 2 of 2): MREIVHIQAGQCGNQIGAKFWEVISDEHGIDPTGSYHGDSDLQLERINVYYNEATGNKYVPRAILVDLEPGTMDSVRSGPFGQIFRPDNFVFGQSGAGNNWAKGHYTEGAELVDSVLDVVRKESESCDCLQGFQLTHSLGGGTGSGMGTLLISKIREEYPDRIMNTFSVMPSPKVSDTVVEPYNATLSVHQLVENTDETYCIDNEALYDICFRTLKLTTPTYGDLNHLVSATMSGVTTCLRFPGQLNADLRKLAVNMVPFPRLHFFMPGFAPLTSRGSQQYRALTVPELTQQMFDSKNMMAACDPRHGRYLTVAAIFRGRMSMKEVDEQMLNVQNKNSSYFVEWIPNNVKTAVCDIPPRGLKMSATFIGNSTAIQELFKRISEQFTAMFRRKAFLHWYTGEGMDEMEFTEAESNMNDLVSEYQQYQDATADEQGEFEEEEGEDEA

B1: human Ska complex (Ska1, Ska2, Ska3), wild type, full length (complex)
chain 1: MASSDLEQLCSHVNEKIGNIKKTLSLRNCGQEPTLKTVLNKIGDEIIVINELLNKLELEIQYQEQTNNSLKELCESLEEDYKDIEHLKENVPSHLPQVTVTQSCVKGSDLDPEEPIKVEEPEPVKKPPKEQRSIKEMPFITCDEFNGVPSYMKSRLTYNQINDVIKEINKAVISKYKILHQPKKSMNSVTRNLYHRFIDEETKDTKGRYFIVEADIKEFTTLKADKKFHVLLNILRHCRRLSEVRGGGLTRYVIT
chain 2: MEAEVDKLELMFQKAESDLDYIQYRLEYEIKTNHPDSASEKNPVTLLKELSVIKSRYQTLYARFKPVAVEQKESKSRICATVKKTMNMIQKLQKQTDLELSPLTKEEKTAAEQFKFHMPDL
chain 3: MDPIRSFCGKLRSLASTLDCETARLQRALDGEESDFEDYPMRILYDLHSEVQTLKDDINILLDKARLENQEGIDFIKATKVLMEKNSMDIMKIREYFQKYGYSPRVKKNSVHEQEAINSDPELSNCENFQKTDVKDDLSDPPVASSCISEKSPRSPQLSDFGLERYIVSQVLPNPPQAVNNYKEEPVIVTPPTKQSLVKVLKTPKCALKMDDFECVTPKLEHFGISEYTMCLNEDYTMGLKNARNNKSEEAIDTESRLNDNVFATPSPIIQQLEKSDAEYTNSPLVPTFCTPGLKIPSTKNSIALVSTNYPLSKTNSSSNDLEVEDRTSLVLNSDTCFENLTDPSSPTISSYENLLRTPTPPEVTKIPEDILQLLSKYNSNLATPIAIKAVPPSKRFLKHGQNIRDVSNKEN
notes: Ska1, human; Ska2, human; Ska3, human, V58I as cloned; Ska3 V58I is printed without explanation; TEV-cleavable tags removed in solution; also called WT Ska complex; FL Ska complex; source: E. coli BL21 Gold, co-expressed, purified (glutathione sepharose, size-exclusion chromatography); copies: 2 + 2 + 2
Take B1: in test [1], the Kd was found to be 2.9 ± 0.6 µM. The response (bound fraction) in test [2] is 0.63 and 0.21 and 0.31.

Usually Kd stands for the constant that tells how readily two partners part at equilibrium. Read a high Kd as lower affinity.
